Patent US20260167721A1 (ABLEXIS, published 2026)
Blank lines part the entries; values can stand above or below the binder they belong to.

Assays:
[1] = target: T1, recombinant human CD3 epsilon/delta heterodimer (human, UniProt P07766 23-126; P04234 22-105); experiment: Octet BLI, mAb on FAB2G sensor, hCD3 E/D 200-50 nM; R^2 0.99
T1 construct: Recombinant protein in solution (200-50 nM) in the Octet assay; also called hCD3 E/D; human CD3E/D

[2] = target: T2, recombinant human CD3 epsilon/gamma heterodimer (human, UniProt P07766 23-126; P09693 23-116); experiment: Octet BLI, mAb on FAB2G sensor, hCD3 E/G 200-50 nM; R^2 0.99
T2 construct: Recombinant protein in solution (200-50 nM) in the Octet assay; also called hCD3 E/G

recombinant CD3 proteins = experiment: Octet (BLI), bispecific antibody against recombinant CD3 proteins

T1 sequence (P07766 23-126, stated change not applied, chain 1 of 2): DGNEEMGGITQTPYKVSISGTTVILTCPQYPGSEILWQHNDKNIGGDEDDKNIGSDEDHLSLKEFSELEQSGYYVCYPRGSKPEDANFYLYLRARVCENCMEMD
T1 sequence (P04234 22-105, stated change not applied, chain 2 of 2): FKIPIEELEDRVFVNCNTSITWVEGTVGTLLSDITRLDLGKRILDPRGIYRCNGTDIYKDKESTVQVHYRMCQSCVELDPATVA
T2 sequence (P07766 23-126, chain 1 of 2): as the sequence (P07766 23-126, stated change not applied, chain 1 of 2) above
T2 sequence (P09693 23-116, chain 2 of 2): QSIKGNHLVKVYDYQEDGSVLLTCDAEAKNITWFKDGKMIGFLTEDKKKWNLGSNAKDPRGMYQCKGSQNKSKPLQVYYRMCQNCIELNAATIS

B2: ABL-CD3-55 (antibody, V domains shown)
VH: EVQLVESGGGLVKPGGSLRLSCAASGFTFSIYSMNWVRQAPGKGLEWVSSISSGSSYIYYADSVKGRFTISRDNAKSSLFLQMNSLRAEDTAVYYCAREKRELLFDYWGQGTLVTVSS
VL: NFMLTQPHSVSESPGKTVTISCTRSSGSIASNYVQWYQQRPGSSPTTVIYEDNQRPSGVPDRFSGSIDRSSNSASLTISGLKTEDEADYYCQSYDSSNRVFGGGTKLTVL
notes: Chimeric hybridoma mAb: human V, CH1, upper hinge; mouse middle hinge, CH2, CH3
Kd [1]: 183 nM
Response [1]: 0.13
koff [1]: 0.069 s⁻¹
kon [1]: 376000 M⁻¹ s⁻¹
Kd [2]: 141 nM
Response [2]: 0.08
koff [2]: 0.0894 s⁻¹
kon [2]: 636000 M⁻¹ s⁻¹

B3: ABL-CD3-56 (antibody, V domains shown)
VH: EVQLVESGGGLVKPGGSLRLSCVASGFTFSRYSMNWVRQAPGKGLEWVSSISSSSRYTYYADSLKGRFIMSRDNAKNSLFLQMNSLRAEDTAVYYCARNLYNALDYWGQGTLVTVSS
VL: FMLTQPHSVSESPGKTVTISCTRSSGSIASNYVQWYQQRPGSSPTTVIYEDNQRPSGVPDRFSGSIDSSSNSASLTISGLQTEDEADYYCQSYDSSNRVFGGGTKLTVL
notes: as for B2
Kd [1]: 3.96 nM
Response [1]: 1.24
koff [1]: 0.000522 s⁻¹
kon [1]: 132000 M⁻¹ s⁻¹
Kd [2]: 0.94 nM
Response [2]: 1.3
koff [2]: 0.000102 s⁻¹
kon [2]: 109000 M⁻¹ s⁻¹

B6: CD3 × CD33-BspAb39 (bispecific antibody)
chain 1: not shown
chain 2: EVQLVQSGAEVKKPGSSVKVSCKASGYTITDSNIHWVRQAPGQSLEWIGYIYPYNGGTDYNQKFKNRATLTVDNPTNTAYMELSSLRSEDTAFYYCVNGNPWLAYWGQGTLVTVSSASTKGPSVFPLAPSSKSTSGGTAALGCLVKDYFPEPVTVSWNSGALTSGVHTFPAVLQSSGLYSLSSVVTVPSSSLGTQTYICNVNHKPSNTKVDKRVEPKSCDKTHTCPPCPAPEFEGGPSVFLFPPKPKDTLMISRTPEVTCVVVDVSHEDPEVKFNWYVDGVEVHNAKTKPREEQYNSTYRVVSVLTVLHQDWLNGKEYKCKVSNKALPASIEKTISKAKGQPREPQVCTLPPSREEMTKNQVSLSCAVKGFYPSDIAVEWESNGQPENNYKTTPPVLDSDGSFFLVSKLTVDKSRWQQGNVFSCSVMHEALHNRFTQKSLSLSPGK
chain 3: DIQLTQSPSTLSASVGDRVTITCRASESLDNYGIRFLTWFQQKPGKAPKLLMYAASNQGSGVPSRFSGSGSGTEFTLTISSLQPDDFATYYCQQTKEVPWSFGQGTKVEVKRTVAAPSVFIFPPSDEQLKSGTASVVCLLNNFYPREAKVQWKVDNALQSGNSQESVTEQDSKDSTYSLSSTLTLSKADYEKHKVYACEVTHQGLSSPVTKSFNRGEC
Kd (recombinant CD3 proteins): 299 nM
Response (recombinant CD3 proteins): 0.1
koff (recombinant CD3 proteins): 0.117 s⁻¹
kon (recombinant CD3 proteins): 391000 M⁻¹ s⁻¹

B8: CD3 × CD33-BspAb45 (bispecific antibody)
chain 1: EVQLVESGGGLVQPGGSLRLSCAASGFTFSRYSMNWVRQAPGKCLEWVSYISSSSSSIYYADSVKGRFTISRDNAKNSLYLQMNSLRDEDTAVYYCARDRRATLDYWGQGTLVTVSSGGGGSGGGGSGGGGSGGGGSNFMLTQPHSVSESPGKTVTISCTRSSGSIASNYVQWYQQRPGSSPTTVIYEDNQRPSGVPDRFSGSIDSSSNSASLTISGLKTEDEADYYCQSYDSSNHVFGCGTKLTVLDKTHTCPPCPAPEFEGGPSVFLFPPKPKDTLMISRTPEVTCVVVDVSHEDPEVKFNWYVDGVEVHNAKTKPREEQYNSTYRVVSVLTVLHQDWLNGKEYKCKVSNKALPASIEKTISKAKGQPREPQVYTLPPCREEMTKNQVSLWCLVKGFYPSDIAVEWESNGQPENNYKTTPPVLDSDGSFFLYSKLTVDKSRWQQGNVFSCSVMHEALHNHYTQKSLSLSPGK
chain 2: EVQLVQSGAEVKKPGSSVKVSCKASGYTITDSNIHWVRQAPGQSLEWIGYIYPYNGGTDYNQKFKNRATLTVDNPTNTAYMELSSLRSEDTAFYYCVNGNPWLAYWGQGTLVTVSSASTKGPSVFPLAPSSKSTSGGTAALGCLVKDYFPEPVTVSWNSGALTSGVHTFPAVLQSSGLYSLSSVVTVPSSSLGTQTYICNVNHKPSNTKVDKRVEPKSCDKTHTCPPCPAPEFEGGPSVFLFPPKPKDTLMISRTPEVTCVVVDVSHEDPEVKFNWYVDGVEVHNAKTKPREEQYNSTYRVVSVLTVLHQDWLNGKEYKCKVSNKALPASIEKTISKAKGQPREPQVCTLPPSREEMTKNQVSLSCAVKGFYPSDIAVEWESNGQPENNYKTTPPVLDSDGSFFLVSKLTVDKSRWQQGNVFSCSVMHEALHNRFTQKSLSLSPGK
chain 3: DIQLTQSPSTLSASVGDRVTITCRASESLDNYGIRFLTWFQQKPGKAPKLLMYAASNQGSGVPSRFSGSGSGTEFTLTISSLQPDDFATYYCQQTKEVPWSFGQGTKVEVKRTVAAPSVFIFPPSDEQLKSGTASVVCLLNNFYPREAKVQWKVDNALQSGNSQESVTEQDSKDSTYSLSSTLTLSKADYEKHKVYACEVTHQGLSSPVTKSFNRGEC
Kd (recombinant CD3 proteins): 177 nM
Response (recombinant CD3 proteins): 0.58
koff (recombinant CD3 proteins): 0.0529 s⁻¹
kon (recombinant CD3 proteins): 299000 M⁻¹ s⁻¹

Next, values leading:

Kd [1]: 17.6 nM
Response [1]: 0.87
koff [1]: 0.00267 s⁻¹
kon [1]: 152000 M⁻¹ s⁻¹
Kd [2]: 19.3 nM
Response [2]: 0.87
koff [2]: 0.00258 s⁻¹
kon [2]: 134000 M⁻¹ s⁻¹
B1: ABL-CD3-54 (antibody, V domains shown)
VH: EVQLVESGGGLVKPGGSLRLSCAASGFTFSSYSMNWVRQAPGKGLEWVSSISRSSRYIFYADSVRGRFTISRDNAKNSLYLQMNSLRAEDTAVYYCAREKRELLFDYWGQGTLVTVSS
VL: NSMLTQPHSVSESPGKTVTISCTRSSGSIASYYVQWYQQRPGSSPTTVIYEDNQRPSGVPDRFSGSIDSSSNSASLTISGLKTEDEADYYCQSFDSSNRVFGGGTKLTVL
notes: as for B2

Kd (recombinant CD3 proteins): 205 nM
Response (recombinant CD3 proteins): 0.42
koff (recombinant CD3 proteins): 0.00334 s⁻¹
kon (recombinant CD3 proteins): 16300 M⁻¹ s⁻¹
B4: CD3 × CD33-BspAb36 (bispecific antibody)
chain 1: not shown
chain 2: EVQLVQSGAEVKKPGSSVKVSCKASGYTITDSNIHWVRQAPGQSLEWIGYIYPYNGGTDYNQKFKNRATLTVDNPTNTAYMELSSLRSEDTAFYYCVNGNPWLAYWGQGTLVTVSSASTKGPSVFPLAPSSKSTSGGTAALGCLVKDYFPEPVTVSWNSGALTSGVHTFPAVLQSSGLYSLSSVVTVPSSSLGTQTYICNVNHKPSNTKVDKRVEPKSCDKTHTCPPCPAPEFEGGPSVFLFPPKPKDTLMISRTPEVTCVVVDVSHEDPEVKFNWYVDGVEVHNAKTKPREEQYNSTYRVVSVLTVLHQDWLNGKEYKCKVSNKALPASIEKTISKAKGQPREPQVCTLPPSREEMTKNQVSLSCAVKGFYPSDIAVEWESNGQPENNYKTTPPVLDSDGSFFLVSKLTVDKSRWQQGNVFSCSVMHEALHNRFTQKSLSLSPGK
chain 3: DIQLTQSPSTLSASVGDRVTITCRASESLDNYGIRFLTWFQQKPGKAPKLLMYAASNQGSGVPSRFSGSGSGTEFTLTISSLQPDDFATYYCQQTKEVPWSFGQGTKVEVKRTVAAPSVFIFPPSDEQLKSGTASVVCLLNNFYPREAKVQWKVDNALQSGNSQESVTEQDSKDSTYSLSSTLTLSKADYEKHKVYACEVTHQGLSSPVTKSFNRGEC

Kd (recombinant CD3 proteins): 81 nM
Response (recombinant CD3 proteins): 0.28
koff (recombinant CD3 proteins): 0.0203 s⁻¹
kon (recombinant CD3 proteins): 250000 M⁻¹ s⁻¹
B5: CD3 × CD33-BspAb38 (bispecific antibody)
chain 1: not shown
chain 2: EVQLVQSGAEVKKPGSSVKVSCKASGYTITDSNIHWVRQAPGQSLEWIGYIYPYNGGTDYNQKFKNRATLTVDNPTNTAYMELSSLRSEDTAFYYCVNGNPWLAYWGQGTLVTVSSASTKGPSVFPLAPSSKSTSGGTAALGCLVKDYFPEPVTVSWNSGALTSGVHTFPAVLQSSGLYSLSSVVTVPSSSLGTQTYICNVNHKPSNTKVDKRVEPKSCDKTHTCPPCPAPEFEGGPSVFLFPPKPKDTLMISRTPEVTCVVVDVSHEDPEVKFNWYVDGVEVHNAKTKPREEQYNSTYRVVSVLTVLHQDWLNGKEYKCKVSNKALPASIEKTISKAKGQPREPQVCTLPPSREEMTKNQVSLSCAVKGFYPSDIAVEWESNGQPENNYKTTPPVLDSDGSFFLVSKLTVDKSRWQQGNVFSCSVMHEALHNRFTQKSLSLSPGK
chain 3: DIQLTQSPSTLSASVGDRVTITCRASESLDNYGIRFLTWFQQKPGKAPKLLMYAASNQGSGVPSRFSGSGSGTEFTLTISSLQPDDFATYYCQQTKEVPWSFGQGTKVEVKRTVAAPSVFIFPPSDEQLKSGTASVVCLLNNFYPREAKVQWKVDNALQSGNSQESVTEQDSKDSTYSLSSTLTLSKADYEKHKVYACEVTHQGLSSPVTKSFNRGEC

Kd (recombinant CD3 proteins): 133 nM
Response (recombinant CD3 proteins): 0.51
koff (recombinant CD3 proteins): 0.0186 s⁻¹
kon (recombinant CD3 proteins): 139000 M⁻¹ s⁻¹
B7: CD3 × CD33-BspAb42 (bispecific antibody)
chain 1: EVQLVESGGGLVKPGGSLRLSCAASGFTLSSYSMNWVRQAPGKCLEWVSSISRSGSYIYYADSVKGRFTISRDNAKNSLYLQMNSLRAEDTAVYYCAREKWELLYFDYWGQGTLVTVSSGGGGSGGGGSGGGGSGGGGSNFMLTQPHSVSESPGKTVTISCTRSSGSIASNYVQWYQQRPGSSPTTVIYEDNQRPSGVPDRFSGSIDSSSNSASLTISGLKTEDEADYYCQSYDSSNRVFGCGTKLTVLDKTHTCPPCPAPEFEGGPSVFLFPPKPKDTLMISRTPEVTCVVVDVSHEDPEVKFNWYVDGVEVHNAKTKPREEQYNSTYRVVSVLTVLHQDWLNGKEYKCKVSNKALPASIEKTISKAKGQPREPQVYTLPPCREEMTKNQVSLWCLVKGFYPSDIAVEWESNGQPENNYKTTPPVLDSDGSFFLYSKLTVDKSRWQQGNVFSCSVMHEALHNHYTQKSLSLSPGK
chain 2: EVQLVQSGAEVKKPGSSVKVSCKASGYTITDSNIHWVRQAPGQSLEWIGYIYPYNGGTDYNQKFKNRATLTVDNPTNTAYMELSSLRSEDTAFYYCVNGNPWLAYWGQGTLVTVSSASTKGPSVFPLAPSSKSTSGGTAALGCLVKDYFPEPVTVSWNSGALTSGVHTFPAVLQSSGLYSLSSVVTVPSSSLGTQTYICNVNHKPSNTKVDKRVEPKSCDKTHTCPPCPAPEFEGGPSVFLFPPKPKDTLMISRTPEVTCVVVDVSHEDPEVKFNWYVDGVEVHNAKTKPREEQYNSTYRVVSVLTVLHQDWLNGKEYKCKVSNKALPASIEKTISKAKGQPREPQVCTLPPSREEMTKNQVSLSCAVKGFYPSDIAVEWESNGQPENNYKTTPPVLDSDGSFFLVSKLTVDKSRWQQGNVFSCSVMHEALHNRFTQKSLSLSPGK
chain 3: DIQLTQSPSTLSASVGDRVTITCRASESLDNYGIRFLTWFQQKPGKAPKLLMYAASNQGSGVPSRFSGSGSGTEFTLTISSLQPDDFATYYCQQTKEVPWSFGQGTKVEVKRTVAAPSVFIFPPSDEQLKSGTASVVCLLNNFYPREAKVQWKVDNALQSGNSQESVTEQDSKDSTYSLSSTLTLSKADYEKHKVYACEVTHQGLSSPVTKSFNRGEC
